Source: the DeepSol protein solubility set

Assay: soluble on expression in E. coli; label from the status in PepcDB or PDB records

Soluble on expression in E. coli, not soluble:
MGSDKIHHHHHHMANISTFEVGYCLHPGCMALRGAGWKVCRFPARVWMLESHGKRWLWDTGYAQHFTDATRSGLFQLYRRMTPVHFETKDALIHQLHAQGIQPADIDGLIISHFHGDHIAGLQDFPTVPFICSALGWQQTRNLRGFAALKRAFVPALIPEHFEQSLQFVENFPLTDLPAALAPFTQGYVLPGSDKEIVLVPLPGHAVGHLGAFVLTETGWVLLASDAAWSPHSYREGRGPSRLANLVMDDPKAYYQTLDQLHQLHLNGQVEIRLCHEGDL
MGSDKIHHHHHHMANLLSTCTSESGNIQHISPQNAGWEYVGFDVWQLKAGESITLPSDERERCLVLVAGLASVKAADSFFYRIGQRMSPFERIPAYSVYLPHHTEAKVTAETDLELAVCSAPGFGELPVRLISPQEVGVEHRGKGRNQRLVHNILPDSQLADSLLVVEVYTNEGDTSSWPAHKHDTAVEGQETYLEETYYHRFNPPQGFCLQRVYTDDRSLDECMAVYNRDVVKVPKGYHPVATIAGYDNYYLNVMAGPLRKWRFTWEENHAWINSPDYPR
MGSDKIHHHHHHMANLTFYPIGTAGEKWGETEKAAWLASTQIKRSYQDDVVTPLKAMEAKLSALGLGIVQYGALSINAERYPLFAVKSQQFDPQKPTVLVTGGVHGYETSGVHGALAFLTNEAANYVQQVNLVVAVCVSPWGYETINRWNPKAIDPNRSFYANSPAEESAALMALVASVTSVEQGFDVHVDLHETTDSDELEFRPALCARDGIEYDKGTIPDGFYAVGDTEHSMDAFQKAIIDGVSKVTHIAPADEKGEIIGSTVVQHGVINYPLKSLGLCSSVTGCIYNTTTEVYPDSPTATPAECNLAQVAAITSAIDYVLAQR
MGSDKIHHHHHHMAQEALCRKRHEGFNGSMVGVSLADLIQLKGTNRFSGCISVEFGGRCGVIFFQDGEIVHAEKGSCEGEEALQRIMRWPGGRFTAYPHLATDRHSIRKNRQHLLLDAHRAMDERHRHVDPKGERAEQTPLRERIRAIGMVSDAITLDFDGVPTDEKSPSADRLAAGACFLARLADRIGSRLGTGSPTSMVLEGTREHLFIYTGKHHLLAVAAGADHQPPMVEEAIRRAVQTA
MGSDKIHHHHHHMAQQKDTKKITVFTSTYNRAYILPKLYESLKLQTCKDFEWLVVDDGSEDETSELFDKWLEEDVIEIAYFKKKNGGKHRAINFAASKAQGQLFFIVDSDDYLTLTAVEIICKEWEKVENKKQSAGLCFRKICYNTGKMIGADFPVSPIDASSLTICYKWKIYEDKAEVFKTELIRRFPFPEIEGEKFISEAIVWNKISVCDSPLLRCVNTGIYMCEYLPDGLTANFIKLMKRNPKGGILYYKSLFNLSCIRKNPIDILKISLRLSQCIIYSFLRCFGSYL
MGSDKIHHHHHHMARSHRLFELMQALRRHRRTVSGASLAQELGVSLRTIRRDVATLQGMGADIDGEPGLGYILKPGFLLPPLSFTEEELQALMIGAQWVSRQTDDKFAFAVRNALAKISAVLPVEMRPTLEDETFYISKPLSVSTTIDLSEIRRALRDQCKLSITLAIEHAPKDAQIIWPIMLGFIEARRHLAAWCEGDSQYRVIDMDDIADAHVLTERYTRNRRQLIKEWRALEVLPCNVRGETC
MGSDKIHHHHHHMARYRVHVNDPLDKEATQLLMNKEELEVTSEHLEKDELMKIIPEVDVLVVRSATKVTADIIEAGKNLKIIARAGIGLDNIDVQKAKEKGIKVLNTPGASAPSVAELAMGLMLACARHIARATVSLKEGKWEKKALKGKELLGKTLGLIGFGNIGQEVAKRALAFGMKIIAYDPAKPETDLPVEYVDLDTLFKESDFISLHVPLTESTRHIINRESIAKMKDGVIIVNTARGGTIDEEALYEEVVSGKVYAAGLDVFEVEPPTDEIRRKLLSLDNVVATPHIGASTAEAQRRVGIELVEKIFKELGI
MGSDKIHHHHHHMASAATEGQLADWRTRALKLEDEVKKVIVGQDAAIRLINIAIFARGHVMLEGGVGVGKTTLLQSVARGIGGAYERIEGTVDLMPNDLVYHTFLGPEGRPQIDEGPLLRAGENLSVFFFNEINRARPQVHALMLRVMAERHLHAFKREYRLPHMVVFADRNQVEKNETFEIPSAARDRFMMEIPIHVPEDKALRKSLVFDTRFQHAEQLTHTVESGLLPFNMLNDFSDVVQNHVQSSQALEDYVIDLWDATQKPQDFGITLEGIDMQRLIQAGASPRGMGMLLKAARVHAWLMEREYVYPEDIHAVFHEVIAHRLVFNSMYESRRTVLARELTAKILQTVAVPS
MGSDKIHHHHHHMASIKAINNSAHGNVKVKSNPSFIQSKTKHFAPVVVQEFISASKEFPIVFIKDAETGRFNAVVLLGLKPQENLFFDEKSWQGSYIPEALTLYPFVIHQAEGSDKALLCVDEDSALVNETIGDAFFDEKGVQKEWLTAKGEAVVDYVNKSGVTQNFIQLLLAKELLAPQTLSLNLAGQEEYTLDGLYVINEQKLNDLSDSEFSELRKTNALPAIYAILMSMQCIKKLIDRQSSK
MGSDKIHHHHHHMASIKDVAKLAGVSIATVSRVINGYNNVSEETRKKVIDAIRKLNYHPVYAVKGAVLKRTIGVLVPNFGGFHYNEILTGIEKEAIKRDFTLMISTTLHRTSVELERLEVFFAKRVDGIIVCSSKKDEEQLERLIKSAIPVVVVDREEPEIRLDNVGIDNYAAGRMCAKYLLEKGHRKVLLLKGRKDIYSFSDRERGFIDYSTRHGIDVKVTPCGYFAEHGYHAVERYLKKHGRDFTAIFAINDLSAFGALKALHDLGVLVPDEVSVMGFDDDPISSYTIPPLTTVRQPREEMGRVAFEILYERLSGKKGVARRVVLPVEIVERESVKQL
MGSDKIHHHHHHMASLSELAVFIAVAEQGSFVGAGRVLGVSASAVGKRISRLEVDLGVRLLQRNTRSLALTAEGETVLSRGRSLLDEAESLRVVLERSSRQPGGVLRLSLPPIGGVLMAELAAFRQRYPEVALELDYSERNVDIIEEGFDAAIRVGAGDDGKLRSLALPGFRRLIVAAPDYLVRHGQPRSAAQLAEHQLIHYRSPNSGKLEAWPLVNAELPRALVCNSVHARLDFALQGQGIACLPDISIRRELEDGSLRPLLGSENGEKVVLRLLWPSSRGLSARMEAFLGFMRERSGAAPCENFKVRA
MGSDKIHHHHHHMASPGSGFWSFGSEDGSADPENPGTARAWCQVAQKFTGGIGNKLCALLYGDSGKPAEGGGSVTSRAATGKVACTCDQKPCNCPKGDVNYAFLHATDLLPACDGERPTLAFLQDVMNILLQYVVKSFDRSTKVIDFHYPNELLQEYNWELADQPQNLEEILTHCQTTLKYAIKTGHPRYFNQLSTGLDMVGLAADWLTSTANTNMFTYEIAPVFVLLEYVTLKKMREIIGWPGGSGDGIFSPGGAISNMYAMLIARYKMFPEVKEKGMAAVPRLIAFTSEHSHFSLKKGAAALGIGTDSVILIKCDERGKMIPSDLERRILEVKQKGFVPFLVSATAGTTVYGAFDPLLAVADICKKYKIWMHVDAAWGGGLLMSRKHKWKLSGVERANSVTWNPHKMMGVPLQCSALLVREEGLMQSCNQMHASYLFQQDKHYDLSYDTGDKALQCGRHVDVFKLWLMWRAKGTTGFEAHIDKCLELAEYLYTIIKNREGYEMVFDGKPQHTNVCFWFVPPSLRTLEDNEERMSRLSKVAPVIKARMMEYGTTMVSYQPLGDKVNFFRMVISNPAATHQDIDFLIEEIERLGQDL
MGSDKIHHHHHHMASPINESRIGYLYEAVRSGTVRAAADYLDVAPSAVSRQIALLEEELAIALVERNKRGVRPTEAGALLIEYFRQQRSHQGDLVAKLQEIRGLRRGTIVVVMGEGFASTMVGGPIKQFCEAYPEISITMDLCSTNEVMRRVSEDEADIGLVFNPSSDSKIVSRAGSRQPMHAIVSPAFPLVGKVKSVTLQDLMPYPMALTHPEHGTRRLVDAAMLLDKVRLTPAITTNSVNVLKLFAKSNLGFTLLAPIAIAPELAAGELVALPVDNRLLESSEAHLVTRAGRQLSPAANRLLNRLKAQIHKYDEYGAESGGQASLATQ
MGSDKIHHHHHHMATDASGGVGEKAKDHVHVPYEVVSYYAARVALLECMSVGATPFTFLVQNFSGDEPYQKMIDGINRALGEANQAQATIAGSTESNMVLEQSCLGVTVIGRVHQSALKIGITPKDAGIALLGKPLVGEEVVSQEKDVFPLKQFDELLQEEGVYEIIPVGSKGVKYELEVLAATNEWNTLQVPVNGNVDLTKSSGPATSLLITFDGTMEALLKAKYSSWWTTLASKIST
MGSDKIHHHHHHMATELKTFTDSQFIGKPVLADIEFIPHLEKINDFAATNGLKIFVTSSARPWGVPVGGAIVSPAKMSNHLIGHAIDMNIQIGGKLYTSNELGDFNSLPPPIKAFITTIRNHPVLRWGGDFGDPVHIDDGLNLHNPNLWKDKFPIIQSELTGLTQPGIRAVNSPRLLFLTTPLMKGDDIKVVQEKLIGKGFDLGITGADGFFGQATANAVIKFQDQEDLDPVDGIVGDKTKKALGL
MGSDKIHHHHHHMATSQWRLIASICFLALTGWSTKAVSAETDKPPFYQVQWQGKSAYLLGSIHIGRADFYPLPTQIETALGKAKGLVVEVDMNKADSNALLRQYGRADKTKGLDWQSRDKQTVESMTPYCAATANVCQSIQSFAPWLQATQVNLIRYNNLGYSTDYGVDMQLMARHAALPVYQLETAESQFQLLASFDSQAQWSMVREAISTSDADLLSLIAAWRSGNEAELDSIMQEQMGGEGDTEMLEKILWRRNHVMADGIIKLMGSTEITSPLFVVVGAGHVVGDKSVVQLLEQAGAKVSACWKQTCQ
MGSDKIHHHHHHMAVEKSTSIKNNSIKTVNVAVAVIHYQNQYLLGFRAASQHQGNRYEFVGGKIDAHETAKQALIREVAEETGINIANNTAVKLGRLHHDYGDKQVCLQVYRIEVTAQQYAQYKNLSCGLEGQKLTWVDKAKLLAGHYDLPAANKTILVWLQLPVQITITYPLAHFNGFPNPRAAWSQYHHEHIAADALVYMRIKVAGAEDSIERLLQLRSDIKAIAPDHLHTDKADNAVINRQIIAGHLTQTQLMQWSSSVAKESMSYSALSTNLPLIVSCHDADSINAANQLAFFRLQQQLPPVIGIFLAPVECTQTHPDTPPLGWEAWSKLAELADMPVIGLGGLSPVMSEQAMLHGGIAVAGIRQFLK
MGSDKIHHHHHHMDDHGRSRPTQPTLYVLDTNVLIHDPNALLNFQEHRVAIPMTVLEELDKLKTGKHTIAAECRQAIRLIDQVLGEATPEQVEGGVPIQRGKNGPSGSLSILMSKRAEPITWLPEHLNDNKIINQLVELKSRHSGVRVVLVTKDINMRLKARACGVDAEDYHTDQLIDDVALLSRGYHSLAGSFWDRVSKVETRQDHGRTWHRVQLTDNLPAVHINEFIVDEQGFVGWIKGIQQDELTILDLHQEPLLHQEAWGLRPRDVYQSLALYALLDPDIHLVNLSGAAGSGKTILALAAAIEQTMVSKRYRRIIATRSVQGLDEDIGFLPGTEAEKMEPWLGAITDNLEALHMDDECTHGSVDYILSKVPLQFKSLNYIRGRSFQQSLILIDECQNLTPHQMKTIITRAGSGSKVICLGNLAQIDTPYLSATSSGLTYLTERFKDFPHGVHVTLQGVPRSVLAEYAEAHM
MGSDKIHHHHHHMDDRIVVTTQQVRALIASQFPQWAALDVQPVDLSGWDNRSFRLGEDMLVRMPSAERYVAQVEKEHRWLPELGPLLPVPIPAPLALGQPGEQYPFCWSVYRWLKGEPLARYLDSIELSAIAIDVAAFLKALHGIDASAGPPAGAHNFHRGGSLAVYDGEARASAARLANEVDQALAMEIWQLALSSHWQGKGVWVHGDIAEGNLLVQDGRLSAVIDFGSSGVGDPSSDLILAWNVLDAHSRAVFRQALGLDEATWQRGRGWALWKALIVLDAERGRNEKMAEWSRRTLREIFADHLEN
